Publication PMC4460183, “Catalytic and hydrodynamic properties of styrene monooxygenases from Rhodococcus opacus 1CP are modulated by cofactor binding” (AMB Express, 2015)
Values joined by “and” are separate entries in the source; they are usually repeats but may differ in a detail not shown here. Equal entries are not always repeated. Each block holds one molecule with its values, some of them ahead of it.

Legend:
[1] = target: StyA1 styrene monooxygenase from Rhodococcus opacus 1CP (Rhodococcus opacus 1CP) (UniProt C7ACG0); assay: SEC; analytical gel filtration, Superdex 200 HR 10/30, 22°C, 10 mM Tris-HCl pH 7.2, 500 mM NaCl; reduced holoenzyme, 12.7 µM FAD and 1 mM sodium dithionite, anaerobic buffer
[2] = target: StyA1 styrene monooxygenase from Rhodococcus opacus 1CP (Rhodococcus opacus 1CP) (UniProt C7ACG0); assay: SEC; analytical gel filtration, Superdex 200 HR 10/30, 22°C, 0.6 mL/min, 10 mM Tris-HCl pH 7.2, 500 mM NaCl; 100 µL of protein (1.95 mg/mL StyA1, 2.17 mg/mL StyA2B, 11.45 mg/mL StyA); apo-enzyme, no FAD
[3] = target: StyA1 styrene monooxygenase from Rhodococcus opacus 1CP (Rhodococcus opacus 1CP) (UniProt C7ACG0); assay: SEC; analytical gel filtration, Superdex 200 HR 10/30, 22°C, 10 mM Tris-HCl pH 7.2, 500 mM NaCl; oxidized holoenzyme, 12.7 µM FAD in buffer and sample
StyA = target: T1, StyA (Rhodococcus opacus, UniProt A0A076JVU4); assay: HPLC of phenyl vinyl sulfoxide formed; format: biochemical; details: StyB of P. fluorescens ST (threefold excess), FAD, NADH regeneration by formate dehydrogenase, catalase
T1 construct: full length, 427 residues, 46,580 Da calculated; apo form purified; monomer; P. fluorescens ST StyB as coupling reductase in oxygenase assays

StyA1 = target: T2, StyA1 (Rhodococcus opacus, UniProt C7ACG0); assay: analytical gel filtration, oligomer shift; format: binding; details: 12.7 µM FAD, no dithionite; 10 mM Tris-HCl pH 7.2, 500 mM NaCl, 22 °C
T2 construct: N-terminal His10 tag kept, E. coli BL21; apo form purified; monomer-dimer, dimer with reduced FAD; oxygenase assays with P. fluorescens ST StyB as coupling reductase

[4] = target: StyA2B self-sufficient styrene monooxygenase from Rhodococcus opacus 1CP (Rhodococcus opacus 1CP) (UniProt C7ACG1); assay: SEC; analytical gel filtration, Superdex 200 HR 10/30, 22°C, 10 mM Tris-HCl pH 7.2, 500 mM NaCl; reduced holoenzyme, 12.7 µM FAD and 1 mM sodium dithionite, anaerobic buffer
[5] = target: StyA2B self-sufficient styrene monooxygenase from Rhodococcus opacus 1CP (Rhodococcus opacus 1CP) (UniProt C7ACG1); assay: SEC; analytical gel filtration, Superdex 200 HR 10/30, 22°C, 0.6 mL/min, 10 mM Tris-HCl pH 7.2, 500 mM NaCl; 100 µL of protein (1.95 mg/mL StyA1, 2.17 mg/mL StyA2B, 11.45 mg/mL StyA); apo-enzyme, no FAD
[6] = target: StyA2B self-sufficient styrene monooxygenase from Rhodococcus opacus 1CP (Rhodococcus opacus 1CP) (UniProt C7ACG1); assay: SEC; analytical gel filtration, Superdex 200 HR 10/30, 22°C, 10 mM Tris-HCl pH 7.2, 500 mM NaCl; oxidized holoenzyme, 12.7 µM FAD in buffer and sample
[7] = target: the molecule itself; assay: as above
[8] = target: the molecule itself; assay: SEC; analytical gel filtration, Superdex 200 HR 10/30, 22°C, 0.6 mL/min, 10 mM Tris-HCl pH 7.2, 500 mM NaCl; 100 µL of protein (1.95 mg/mL StyA1, 2.17 mg/mL StyA2B, 11.45 mg/mL StyA); apo-enzyme, no FAD
purified protein [9] = substrate: NC(=O)C1=CN([C@@H]2O[C@H](COP(=O)(O)OP(=O)(O)OC[C@H]3O[C@@H](n4cnc5c(N)ncnc54)[C@H](O)[C@@H]3O)[C@@H](O)[C@H]2O)C=CC1; assay: purified protein; format: biochemical, Pseudomonas fluorescens; details: FAD in excess, 8 mM Tris-HCl pH 7.5, 30 °C
purified protein [10] = substrate: Cc1cc2nc3c(=O)[nH]c(=O)nc-3n(C[C@H](O)[C@H](O)[C@H](O)COP(=O)(O)OP(=O)(O)OC[C@H]3O[C@@H](n4cnc5c(N)ncnc54)[C@H](O)[C@@H]3O)c2cc1C; assay: purified protein; format: biochemical, Pseudomonas fluorescens; details: NADH in excess, 8 mM Tris-HCl pH 7.5, 30 °C
[11] = target: the molecule itself; assay: SEC; data not shown; StyB in the presence of the cofactor FAD; method taken from the section on quaternary structure (analytical gel filtration), not given
[12] = substrate: NC(=O)C1=CN([C@@H]2O[C@H](COP(=O)(O)OP(=O)(O)OC[C@H]3O[C@@H](n4cnc5c(N)ncnc54)[C@H](O)[C@@H]3O)[C@@H](O)[C@H]2O)C=CC1; assay: NADH consumption, spectrophotometric, Michaelis-Menten fit; format: biochemical, Rhodococcus opacus; details: FAD in excess, 8 mM Tris-HCl pH 7.5, 30 °C, read at 320 nm, apparent constant
Text: (§1) NADH consumption, spectrophotometric, Michaelis-Menten fit on StyB-1CP (StyB from Rhodococcus opacus 1CP)

[13] = substrate: Cc1cc2nc3c(=O)[nH]c(=O)nc-3n(C[C@H](O)[C@H](O)[C@H](O)COP(=O)(O)OP(=O)(O)OC[C@H]3O[C@@H](n4cnc5c(N)ncnc54)[C@H](O)[C@@H]3O)c2cc1C; assay: as above; format: biochemical, Rhodococcus opacus; details: NADH in excess, 8 mM Tris-HCl pH 7.5, 30 °C, read at 320 nm, apparent constant
Text: as §1

T2 sequence (C7ACG0 entry or part of it): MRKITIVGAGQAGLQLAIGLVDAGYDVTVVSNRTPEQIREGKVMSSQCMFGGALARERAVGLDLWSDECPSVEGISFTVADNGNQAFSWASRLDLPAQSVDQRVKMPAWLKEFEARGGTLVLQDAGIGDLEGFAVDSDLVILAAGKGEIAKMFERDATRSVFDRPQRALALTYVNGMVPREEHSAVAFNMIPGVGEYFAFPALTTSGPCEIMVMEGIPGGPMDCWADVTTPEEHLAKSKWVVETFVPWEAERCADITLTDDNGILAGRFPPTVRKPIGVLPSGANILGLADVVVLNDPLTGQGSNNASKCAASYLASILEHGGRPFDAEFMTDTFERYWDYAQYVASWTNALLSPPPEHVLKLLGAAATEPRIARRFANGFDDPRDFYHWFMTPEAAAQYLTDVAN

stoichiometry N [1]: 2 | stoichiometry N [2]: 2 | stoichiometry N [3]: 2
Molecule: StyA1 styrene monooxygenase from Rhodococcus opacus 1CP (from UniProt C7ACG0 1-406) (enzyme)

Molecule: C=CSc1ccccc1 [phenyl vinyl sulfide]
HPLC of phenyl vinyl sulfoxide formed (StyA): All three SMO isoforms were found to convert this substrate

Molecule: Cc1cc2nc3c(=O)[nH]c(=O)nc-3n(C[C@H](O)[C@H](O)[C@H](O)COP(=O)(O)OP(=O)(O)OC[C@H]3O[C@@H](n4cnc5c(N)ncnc54)[C@H](O)[C@@H]3O)c2cc1C [FAD]
analytical gel filtration, oligomer shift (StyA1): For holo-StyA1, the equilibrium shifted towards the dimeric form

stoichiometry N [4]: 2 | stoichiometry N [5]: 2 | stoichiometry N [6]: 2
Molecule: StyA2B self-sufficient styrene monooxygenase from Rhodococcus opacus 1CP (from UniProt C7ACG1 1-573) (enzyme)

B1: StyA styrene monooxygenase from Rhodococcus opacus 1CP (styABCD cluster) (enzyme, UniProt A0A076JVU4 1-426, looked up)
chain: MSKRIAIVGAGTAGLHLGLYLNEKGIDATIFTDRRPEEYANIRLLNTVAHHSVTIDREDALGIDHWPNDGYFGHYYYVGIPGMPIRSYGDLAKPSRAVDYRILQPQLMRDFEERGGKIEYRPIRVEDLTVLSDDYDLVVIGTGKGGLGTLFARDEQSSPFTEPQRQLCVGIFKGIAPAETRAVTFCISPGAGEMIEIPTVTFSGDATALVFENHIGSDLEVLAHTRYEDDPRAFLDLMIEKLKQHYPITAERLDEKEFDVANSHLDILQGGVTPTVRHGHVKLDNGKLAVLLGDAHATVDPVLGQGGNMASYAAHVLGEEIAGNEVYDELFCERVDARRAGRVLGATRWTNFMLSNLKELPNHFVEFLGRVMMDRQLADRFTDNFNYPEKQWDIFSSPENMVAWIEANETGAEETERPFAQTGAQS
notes: StyA of the styABCD cluster, Rhodococcus opacus 1CP, 427 amino acid residues, calculated mass 46,580 Da; amplified from genomic DNA with printed primers that hold the start codon (NdeI CATATG) and the stop codon (TCA in the reverse primer); Apparent subunit mass 50 kDa including the His-tag (SDS-PAGE); also called holo-StyA; source: E. coli BL21, purified (HisTrap FF IMAC)
stoichiometry N [7]: 2 | stoichiometry N [8]: 2 and 4

B2: StyB-ST (StyB from P. fluorescens ST) (Pseudomonas fluorescens) (protein)
chain: MTLKKDVAVDIDSTCFRQAVALFATGIAVLSAETEEGEVHGMTVNSFTSISLDPPTVMVSLKSGRMHELLTRGGRFGVSLLGESQKVFSAFFSKRVMDDTPSPAFTIQAGLPTLRDAMAWFECEVESTVQVHDHTLFIARVSACGTPEANAPQPLLFFASRYHGKPLPLN
notes: full length; E. coli BL21
Km (purified protein [9]): 18.9 ± 1.0 µM | kcat (purified protein [9]): 8.8 ± 0.1 s⁻¹ | kcat/Km (purified protein [9]): 466000 M⁻¹ s⁻¹ | Km (purified protein [10]): 2.6 ± 0.4 µM | kcat (purified protein [10]): 8.7 ± 0.3 s⁻¹ | kcat/Km (purified protein [10]): 3.35e+06 M⁻¹ s⁻¹

B3: StyB flavin reductase from Rhodococcus opacus 1CP (enzyme, UniProt A0A076K0M4 1-177, looked up)
chain: MTRAAEAPPAPEVLSAPVEVAADSTQFRNSVALFATGIAVVTMQDGEGGVHGATINSFTSISLDPPTVMISLKPGYAHELISKSGWYGVSVLSKTQQEHSRYFCGTRDSDWHPQFVAGENVPTLFGSLARFECKVIDTITVNDHTLFLARVARCESEDGSPLMFFASTYHQPALGES
notes: StyB, FAD reductase of the styABCD cluster, Rhodococcus opacus 1CP, 178 amino acid residues, calculated mass 19,053 Da; also called StyB-1CP; source: E. coli BL21, purified (HisTrap FF IMAC), concentrated in the presence of 10 µM FAD
stoichiometry N [11]: 2 | Km [12]: 59.3 ± 4.2 µM | kcat [12]: 26.9 ± 0.6 s⁻¹ | kcat/Km [12]: 454000 M⁻¹ s⁻¹ | Km [13]: 108.3 ± 18.3 µM | kcat [13]: 32.9 ± 2.3 s⁻¹ | kcat/Km [13]: 304000 M⁻¹ s⁻¹
